Experimental data: patent publication US20100093076A1, “SOLUBLE IL-27 RECEPTOR” (priority 2006, published 2010)

Experiments:
[1] = target: T1, huIL-27 (Homo sapiens, UniProt Q14213+Q8NEV9); test: Phospho-STAT3 (BIO-PLEX) neutralization of IL-27 by soluble receptors, mouse spleens; assay type: cell-based; conditions: ligand huIL-27 at EC90 (2 nM)
T1 construct: purchased R&D Systems
T1 sequence (Q8NEV9 29-243): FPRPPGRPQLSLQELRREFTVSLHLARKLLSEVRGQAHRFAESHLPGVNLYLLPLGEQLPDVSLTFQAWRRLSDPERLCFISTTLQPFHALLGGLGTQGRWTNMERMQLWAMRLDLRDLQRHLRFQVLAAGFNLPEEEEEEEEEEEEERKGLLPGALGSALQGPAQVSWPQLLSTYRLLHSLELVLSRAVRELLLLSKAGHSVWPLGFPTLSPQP
T1 sequence (Q14213 21-229): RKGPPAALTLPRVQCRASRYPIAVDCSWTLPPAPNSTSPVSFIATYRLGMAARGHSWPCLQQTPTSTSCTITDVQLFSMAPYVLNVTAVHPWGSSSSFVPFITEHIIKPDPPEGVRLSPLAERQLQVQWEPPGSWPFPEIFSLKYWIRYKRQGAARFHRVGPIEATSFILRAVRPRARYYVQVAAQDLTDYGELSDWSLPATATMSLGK
From the text: (§1) Whole mouse spleens were harvested from C57 B1/6 mice and washed two times with 1×PBS before being plated out at 2×10^5 cells/well in assay media (RPMI 1640 plus 10% fetal bovine serum) in 96-well, round-bottom tissue culture plates. Total human PBMC (peripheral blood mononuclear cells) were thawed from a frozen vial collected from a leukapherisis donation and washed two times with 1×PBS before being plated out at 10^6 cells/well in assay media in 96-well, round-bottom tissue culture plates. […] Following pre-incubation, treatments were added to the plates containing the cells and incubated together at 37° C. for 15 minutes.
(§2) Following incubation, cells were washed with ice-cold wash buffer (BIO-PLEX Cell Lysis Kit, BIO-RAD Laboratories, Hercules, Calif.) and put on ice to stop the reaction according to manufacturer's instructions. […]
(§3) Capture beads (BIO-PLEX Phospho-Stat3 Assay, BIO-RAD Laboratories) were combined with 50 μL of 1:1 diluted lysates and added to a 96-well filter plate according to manufacture's instructions (BIO-PLEX Phosphoprotein Detection Kit, BIO-RAD Laboratories). […] After the final wash, beads were resuspended in 125 μL/well of bead suspension buffer, shaken for 30 seconds, and read on an array reader (BIO-PLEX, BIO-RAD Laboratories) according to the manufacture's instructions. Data were analyzed using analytical software (BIO-PLEX MANAGER 3.0, BIO-RAD Laboratories). […]

[2] = target: T2, muIL-27 (Mus musculus, UniProt O35228+Q8K3I6); test: as above; assay type: cell-based; conditions: ligand muIL-27 at EC90 (0.2 nM)
T2 construct: purchased R&D Systems
T2 sequence (Q8K3I6 29-234): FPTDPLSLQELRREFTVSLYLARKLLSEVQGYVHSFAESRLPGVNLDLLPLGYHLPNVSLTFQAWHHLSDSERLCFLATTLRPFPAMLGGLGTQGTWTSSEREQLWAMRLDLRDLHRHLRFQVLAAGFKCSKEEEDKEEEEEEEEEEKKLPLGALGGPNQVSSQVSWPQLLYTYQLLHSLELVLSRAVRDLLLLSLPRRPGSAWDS
T2 sequence (O35228 19-228): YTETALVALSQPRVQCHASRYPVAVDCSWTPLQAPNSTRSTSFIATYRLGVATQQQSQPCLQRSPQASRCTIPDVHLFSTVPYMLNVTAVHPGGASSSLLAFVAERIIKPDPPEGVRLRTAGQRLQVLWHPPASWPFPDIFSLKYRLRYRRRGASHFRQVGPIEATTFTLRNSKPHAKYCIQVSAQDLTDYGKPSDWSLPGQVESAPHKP
From the text: as §1, §2, §3

[3] = Pharmacokinetics of soluble receptors in female C57B1/6 mice (serum ELISA, noncompartmental analysis); assay type: in vivo, mouse; conditions: for AUCINF: extrapolated to infinity
Description: Studies were performed to evaluate the pharmacokinetics of the mouse (IL-27RAm(mFc1)) and human (IL-27RA-Fc5) soluble receptors in female C57B1/6 mice.
Serum was generated from each sample and analyzed by a qualified enzyme-linked immunosorbant assay (ELISA). The resulting mean serum concentration versus time profiles were then subjected to noncompartmental pharmacokinetic analyses. The following pharmacokinetic parameters were calculated: C0 and Cmax (extrapolated concentration at time zero and maximum serum concentration, respectively), Tmax (time to achieve maximum concentration), t1/2 λz (terminal half-life), AUC0-t (area under the concentration versus time curve from time zero to the last measurable time point), AUCINF (area under the concentration versus time curve extrapolated to infinity), C1 or C1/F (clearance or clearance divided by bioavailable fraction, respectively), VSS or VZ/F (steady state volume of distribution or volume of distribution divided by the bioavailable fraction, respectively), and F (bioavailable fraction).

B1: IL-27RAm(mFc1): Extracellular domain of mouse IL27RA fused to a wild type BALB/c mouse gamma2a constant region Fc tag (protein)
chain: MNRLERVALARLETPRLEGLLELELESLEMSLELELEGTRPRHGSPRGPRLEQCYSVGPRLEGILENCSWGLPRLEGDLEGLTPRPRVLEYHQSQKYHPRNRVWGLVKVPRSKQSWVTIPRRGLQFTMADKLELEIWGTQKGRPRLEWSSVSVASNLEGLTQMKPRDTPRQIFSQVASPISGLGLATLEGLATVQWAPRPRVWPRPRQKALETCQFRYKGLCQAGLAWTRLEGLPRQLEKTDGLETPRVGLMQNLEGLPRGTCYQVSGRCQVGLNGYPRWGGLWSSPRLESFQTPRFLEDPRGLDVWVSGTVCGLTSGKRAALELEVWKDPRRPRCVQVTYTVWFGAGDITTTQGLGLVPRCCKSPRVPRAWMGLWAVVSPRGNSTSWVPRPRTNLESLEVCLEAPRGLSAPRCDVGVSSADGSPRGIKVTWKQGTARGSPRLEGLYVVASPWAQDGDSLEDKLENWTRLEPRPRGNLESTLELEPRGGLFKGGVPRYRITVTAVYSGGLEAAAPRSVWGFRGLGLLEVPRLEAGPRAVWRLEPRDDPRPRGTPRVVALAWGGLVPRRHQLERGQATHYTFCIQSRGLESTVCRNVSSQTQTATLEPRNLEHSGSFKLEWVTVSTVALAGQGPRPRGPRDLESLEHLEPRDNRIRWKALEPRWFLESLEWGLELELEMGCGLESLEASTRCLEQARCLEHWRHKLELEPRQWIWGLRVPRDPRANSNSGQPRYIKGLVSLEPRQPRPRKDGPRILEGLVGLGLVGLLEQPRVVGLSPRKASAPRIYSGYGLKHFLEPRTPRGLGLLEGLELEV
modifications: left off: a dimerising Fc or GST
notes: Extracellular domain of mouse IL27RA fused to a wild type BALB/c mouse gamma2a constant region Fc tag
Q: With B1 as the molecule, how does the IC50 [1] read?
A: 9.3 nM

Q: What about the IC50 [2] of the same molecule?
A: 0.18 nM

Q: And the AUC0-24 ([3]; IP, 100 μg)?
A: 98.2 µg·h/mL

Q: And the Cl/F ([3]; IP, 100 μg)?
A: 0.983 mL/h

Q: What about the Tmax ([3]; IP, 100 μg) of the same molecule?
A: 1 h

Q: What about the “t1/2 λz (terminal half-life)” value ([3]; IP, 100 μg) of the same molecule?
A: 5.17 h

Q: What about the Cmax ([3]; IP, 100 μg, mouse serum) of the same molecule?
A: 13200 ng/mL

Q: What about the AUCINF ([3]; IP, 100 μg) of the same molecule?
A: 102 µg·h/mL

Q: What about the AUC0-24 ([3]; IV, 100 μg) of the same molecule?
A: 157 µg·h/mL

Q: What about the Cl ([3]; IV, 100 μg) of the same molecule?
A: 0.618 mL/h

Q: What about the Vss ([3]; IV, 100 μg) of the same molecule?
A: 3.05 mL

Q: And the “t1/2 λz (terminal half-life)” value ([3]; IV, 100 μg)?
A: 5.25 h

Q: What about the “Co (extrapolated concentration at time zero)” value ([3]; IV, 100 μg, mouse serum) of the same molecule?
A: 36.2 µg/mL

Q: And the AUCINF ([3]; IV, 100 μg)?
A: 162 µg·h/mL

Q: What about the AUC0-24 ([3]; SC, 100 μg) of the same molecule?
A: 56.5 µg·h/mL

Q: And the Tmax ([3]; SC, 100 μg)?
A: 3 h

Q: What about the Cmax ([3]; SC, 100 μg, mouse serum) of the same molecule?
A: 7950 ng/mL

Q: What about the “clearance compared to IL-27RA-Fc5” value ([3]; female C57B1/6 mice) of the same molecule?
A: more rapid clearance
